Assay results taken from patent US20090029376.
Changes are numbered by the printed parent chain.

Experiments:
Assay in all cases: cleavage_in_vitro
[1] = target: T1, SalI-HF R107A (Streptomyces albus G) (UniProt Q53608); conditions: NEB4, 37 C
T1 sequence: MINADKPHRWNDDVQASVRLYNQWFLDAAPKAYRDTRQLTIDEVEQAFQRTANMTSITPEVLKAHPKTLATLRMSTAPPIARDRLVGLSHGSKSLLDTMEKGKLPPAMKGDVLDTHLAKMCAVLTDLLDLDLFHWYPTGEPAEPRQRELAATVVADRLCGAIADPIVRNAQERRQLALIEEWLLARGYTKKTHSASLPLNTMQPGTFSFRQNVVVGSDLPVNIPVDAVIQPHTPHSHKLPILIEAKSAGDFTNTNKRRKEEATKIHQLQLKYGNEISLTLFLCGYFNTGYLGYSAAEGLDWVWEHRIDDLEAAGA

[2] = target: T2, SalI (Streptomyces albus G) (UniProt Q53608); conditions: NEB3, 37 C; Table 10 prints 4
T2 sequence: T1 sequence with A107R

[3] = tested on: T3, AvrII-HF Y104F (Anabaena variabilis); conditions: NEB4, 37 C
T3 sequence: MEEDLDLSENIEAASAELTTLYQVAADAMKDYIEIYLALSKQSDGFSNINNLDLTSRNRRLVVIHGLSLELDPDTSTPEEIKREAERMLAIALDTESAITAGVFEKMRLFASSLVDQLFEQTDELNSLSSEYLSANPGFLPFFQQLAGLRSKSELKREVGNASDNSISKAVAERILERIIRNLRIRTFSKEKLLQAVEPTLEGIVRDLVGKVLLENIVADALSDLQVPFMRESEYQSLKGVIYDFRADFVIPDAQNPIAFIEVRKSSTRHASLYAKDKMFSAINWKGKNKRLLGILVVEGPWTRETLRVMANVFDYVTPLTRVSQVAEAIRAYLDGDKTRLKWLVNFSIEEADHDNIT

[4] = tested on: T4, AvrII (Anabaena variabilis); conditions: NEB4, 37 C
T4 sequence: T3 sequence with F104Y

[5] = target: T5, PvuII-HF T46G (Proteus vulgaris) (UniProt P23657); conditions: NEB4, 37 C
T5 sequence: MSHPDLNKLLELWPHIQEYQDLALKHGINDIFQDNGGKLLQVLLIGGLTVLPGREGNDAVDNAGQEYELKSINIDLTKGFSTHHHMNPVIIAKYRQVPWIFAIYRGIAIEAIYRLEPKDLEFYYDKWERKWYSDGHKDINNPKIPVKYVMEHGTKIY

[6] = tested on: T6, BspQI-HF K279P/R388F (Bacillus sphaericus); conditions: NEB4, 50 C
T6 sequence: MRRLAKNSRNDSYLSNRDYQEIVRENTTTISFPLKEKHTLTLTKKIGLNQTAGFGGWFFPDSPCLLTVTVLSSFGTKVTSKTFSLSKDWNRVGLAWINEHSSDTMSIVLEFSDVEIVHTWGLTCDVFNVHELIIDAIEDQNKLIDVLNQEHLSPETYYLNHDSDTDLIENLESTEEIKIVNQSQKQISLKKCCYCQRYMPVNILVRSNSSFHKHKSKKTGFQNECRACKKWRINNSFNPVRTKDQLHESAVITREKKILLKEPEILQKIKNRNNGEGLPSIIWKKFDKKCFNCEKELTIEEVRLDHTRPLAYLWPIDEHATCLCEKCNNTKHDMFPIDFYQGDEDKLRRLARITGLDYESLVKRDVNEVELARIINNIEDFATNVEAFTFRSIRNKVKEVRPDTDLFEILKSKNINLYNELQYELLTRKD

[7] = target: T7, BamHI(K30A/K52A) K30A/K52A (Bacillus amyloliquefaciens) (UniProt P23940); conditions: NEB2, 37 C
T7 sequence: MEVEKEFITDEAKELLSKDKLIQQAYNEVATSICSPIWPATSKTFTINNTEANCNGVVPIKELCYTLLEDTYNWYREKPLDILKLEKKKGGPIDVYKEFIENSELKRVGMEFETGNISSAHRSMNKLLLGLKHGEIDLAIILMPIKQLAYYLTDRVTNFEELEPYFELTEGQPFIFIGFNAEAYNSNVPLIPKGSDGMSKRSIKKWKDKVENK

[8] = target: T8, BamHI(K30A/K88A) K30A/K88A (Bacillus amyloliquefaciens) (UniProt P23940); conditions: NEB2, 37 C
T8 sequence: T7 sequence with A52K, K88A

Substance: HindIII-digested lambda DNA
- activity (fidelity index) [1]: > 2000
- activity (fidelity index) [2]: 32

Substance: T7 DNA
- activity (fidelity index) [3]: 1000
- activity (fidelity index) [4]: 32

Substance: pBR322
- activity (fidelity index) [5]: 500

Substance: pUC19
- activity (fidelity index) [6]: > 4000
- relative cleavage activity (fraction of K30A activity) [7]: 0.1
- relative cleavage activity (fraction of K30A activity) [8]: 0.1
